B1: TlpA-CC WT (TlpA coiled-coil domain, wild type) (protein)
chain: MRPATYEPEQIIEAGLALQAEGRNITGFALRNQVGGGNPTRLRQIWDEYQASQSTVVTEPVAELPVEVAEEVKAVSAALSERITQLATELNDKAVRAAERRVAEVTRAAGEQTAQAERELADAAQTVDDLEEKLDELQDRYDSLTLALESERSLRQQHDVEMAQLKERLAAAEENTRQREERYQEQKTVLQDALNAEQAQHKNTREDLQKRLEQISAEANARTEELKSERDKVNTLLTRLESQENALASERQQHLATRETLQQRLEQAIADTQARAGEIALERDRVSSLTARLESQEKASSEQLVRMGSEIASLTERCTQLENQRDDARLETMGEKETVAALRGEAEALKRQNQSLMAALSGNKQTGGQNA
B2: DED-TlpA-CC (TlpA coiled-coil domain with Asp-Glu-Asp appended to the N-terminus) (protein)
chain: DEDMRPATYEPEQIIEAGLALQAEGRNITGFALRNQVGGGNPTRLRQIWDEYQASQSTVVTEPVAELPVEVAEEVKAVSAALSERITQLATELNDKAVRAAERRVAEVTRAAGEQTAQAERELADAAQTVDDLEEKLDELQDRYDSLTLALESERSLRQQHDVEMAQLKERLAAAEENTRQREERYQEQKTVLQDALNAEQAQHKNTREDLQKRLEQISAEANARTEELKSERDKVNTLLTRLESQENALASERQQHLATRETLQQRLEQAIADTQARAGEIALERDRVSSLTARLESQEKASSEQLVRMGSEIASLTERCTQLENQRDDARLETMGEKETVAALRGEAEALKRQNQSLMAALSGNKQTGGQNA
B3: TlpA-CC-DED (TlpA coiled-coil domain with Asp-Glu-Asp appended to the C-terminus) (protein)
chain: MRPATYEPEQIIEAGLALQAEGRNITGFALRNQVGGGNPTRLRQIWDEYQASQSTVVTEPVAELPVEVAEEVKAVSAALSERITQLATELNDKAVRAAERRVAEVTRAAGEQTAQAERELADAAQTVDDLEEKLDELQDRYDSLTLALESERSLRQQHDVEMAQLKERLAAAEENTRQREERYQEQKTVLQDALNAEQAQHKNTREDLQKRLEQISAEANARTEELKSERDKVNTLLTRLESQENALASERQQHLATRETLQQRLEQAIADTQARAGEIALERDRVSSLTARLESQEKASSEQLVRMGSEIASLTERCTQLENQRDDARLETMGEKETVAALRGEAEALKRQNQSLMAALSGNKQTGGQNADED


Protein | Hill coefficient (fit of CD melting curve at 222 nm, 25-50 C)
B1 | 19.1
B2 | 24.7
B3 | 16.7

Source: patent publication US20170298425
